Source: USRE49495E1, “Binding polypeptides having a mutated scaffold” (Affibody AB, priority 2013, dated 2023)

Legend:
human HER2-Fc = biological target: T1, human HER2-Fc (Homo sapiens, UniProt P04626); assay: Biacore 2000 comparative kinetic analysis, HER2; type: binding; conditions: for KDInv/KDOrig: original set to 1.0; for KD(2w)/KD(0): KD after stability test relative to KD before
T1 construct: Fc; purchased R&D Systems 1129-ER-050
Protocol: (§1) A set of polypeptides showing improved stability properties in Example 12 were further assessed in terms of preserved binding capacities to their targets after introduction of alterations in the scaffold, as well as after having been subjected to the stability test, i.e. incubated at 37° C. for 2 weeks. Comparative kinetic constants (kon and koff) and affinities (KD) were determined using a Biacore 2000 instrument. The target proteins human HER2-Fc (R&D Systems, cat. no. 1129-ER-050), human PDGF-Rβ (R&D Systems, cat. no. 385-PR-100/CF), human FcRn (Biorbyt, cat. no. orb 84388) and human CAIX (R&D Systems, cat. no. 2188-CA), respectively, were immobilized on the carboxylated dextran layer surface of CM5 chips (GE Healthcare). The immobilization was performed using amine coupling chemistry according to the manufacturer's protocol and using HBS-EP as running buffer. One flow cell surface on the chip was activated and deactivated for use as blank during analyte injections. The immobilization level of target protein on the respective surface was approximately 850 RU for HER2, 2200 RU for PDGF-Rβ, 750 for FcRn and 580 RU for CAIX.
(§2) HBS-EP (HER2, PDGF-Rβ, CAIX) or a pH 6.0 Na2HPO4/citric acid buffer (126 mM Na2HPO4, 37 mM citric acid) (FcRn) was used as running buffer and the flow rate was 30 μl/min in the binding experiments performed at 25° C. as further described below.
The Z variants Z02891 (SEQ ID NO:27), Z17341 (SEQ ID NO:28), and Z17342 (SEQ ID NO:29) targeting HER2 were diluted in running buffer to final concentrations of 3.33, 10, 30 and 90 nM and injected for 5 minutes, followed by 30 minutes of dissociation in running buffer. Regeneration by four pulses alternating between 10 mM HCl and 10 mM NaOH followed by 5 min equilibration in running buffer was applied after each analyte injection.
(§3) Kinetic constants were calculated from the sensorgrams using the Langmuir 1:1 model (HER2, FcRn, CAIX) or the 1:1 binding with mass transfer model (PDGF-Rβ) of the BiaEvaluation software 4.1 (GE Healthcare). Curves of the blank surface were subtracted from the curves of the ligand surfaces and the data from the buffer cycles were subtracted from the data of the test-sample cycles to correct for any drift in signal.

[1] = Circular dichroism, variable temperature measurement (Tm) and spectra before and after heating; type: physicochemical; conditions: His6-tagged, 0.5 mg/ml in PBS, CD at 221 nm, 20 to 90° C.
Protocol: Circular dichroism (CD) analysis was carried out to determine the melting temperatures (Tm) and assess potential changes in the secondary structure of the inventive polypeptides as a result of the amino acid substitutions.
Purified His6-tagged Z variants were diluted to 0.5 mg/ml in PBS. For each diluted Z variant, a CD spectrum at 250-195 nm was recorded at 20° C. A variable temperature measurement (VTM) was performed to determine the Tm. In the VTM, the absorbance was measured at 221 nm while the temperature was raised from 20 to 90° C., with a temperature slope of 5° C./min. After the VTM, a second CD spectrum at 250-195 nm was recorded at 20° C. The CD measurements were performed on a Jasco J-810 spectropolarimeter (Jasco Scandinavia AB) using a cell with an optical path-length of 1 mm.

human PDGF-Rβ = biological target: T2, human PDGF-Rβ (Homo sapiens, UniProt P09619); assay: Biacore 2000 comparative kinetic analysis, PDGF-Rβ; type: binding; conditions: for KDInv/KDOrig: original set to 1.0
T2 construct: purchased R&D Systems 385-PR-100/CF
Protocol: as §1, §2
The Z variants Z15805 (SEQ ID NO:30), Z17343 (SEQ ID NO:31), and Z17344 (SEQ ID NO:32) targeting PDGF-R13 were diluted in running buffer to final concentrations of 6.67, 20, 60 and 180 nM and injected for 5 minutes, followed by 20 minutes of dissociation in running buffer. Regeneration by three pulses of 10 mM NaOH followed by 5 min equilibration in running buffer was applied after each analyte injection.
as §3

[2] = (0) prior to stability test, comparative, not absolute
[3] = (2w) after 2 weeks at 37° C., comparative, not absolute
[4] = compared with original Z variant

T2 sequence (P09619 with tags, fused parts or gaps limits assumed): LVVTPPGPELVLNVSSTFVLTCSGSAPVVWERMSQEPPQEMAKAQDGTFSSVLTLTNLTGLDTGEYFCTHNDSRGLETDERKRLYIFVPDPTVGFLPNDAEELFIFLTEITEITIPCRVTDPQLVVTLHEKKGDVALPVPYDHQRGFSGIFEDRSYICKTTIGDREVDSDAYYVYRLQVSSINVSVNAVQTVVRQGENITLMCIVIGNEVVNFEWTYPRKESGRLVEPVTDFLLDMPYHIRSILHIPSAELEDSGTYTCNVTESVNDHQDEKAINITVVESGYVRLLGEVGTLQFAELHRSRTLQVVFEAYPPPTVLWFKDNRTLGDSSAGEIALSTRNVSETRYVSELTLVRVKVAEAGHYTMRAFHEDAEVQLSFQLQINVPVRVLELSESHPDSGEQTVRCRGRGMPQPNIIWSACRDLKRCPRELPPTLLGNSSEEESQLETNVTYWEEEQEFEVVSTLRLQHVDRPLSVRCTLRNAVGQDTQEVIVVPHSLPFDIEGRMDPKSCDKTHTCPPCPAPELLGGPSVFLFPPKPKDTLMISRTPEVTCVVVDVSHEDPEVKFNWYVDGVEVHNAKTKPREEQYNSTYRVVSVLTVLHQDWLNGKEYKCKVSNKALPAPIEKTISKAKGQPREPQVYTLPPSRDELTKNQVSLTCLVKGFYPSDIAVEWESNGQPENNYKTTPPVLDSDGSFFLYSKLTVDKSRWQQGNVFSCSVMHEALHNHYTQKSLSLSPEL

Substance | ka (human HER2-Fc; (0) prior to stability test) | kd (human HER2-Fc; (0) prior to stability test) | Kd (human HER2-Fc; [2]) | KDInv/KDOrig (human HER2-Fc; (0) prior to stability test) | ka (human HER2-Fc; (2w) after 2 weeks at 37° C.) | kd (human HER2-Fc; (2w) after 2 weeks at 37° C.) | Kd (human HER2-Fc; [3]) | KDInv/KDOrig (human HER2-Fc; (2w) after 2 weeks at 37° C.) | KD(2w)/KD(0) (human HER2-Fc) | Tm (° C.) [1] | also measured
Z02891: original Z variant polypeptide targeting HER2, His6-tagged [reference compound] | 1.33e+06 M/s | 7.1e-05 s⁻¹ | 0.054 nM | 1.0 | 1.15e+06 M/s | 7.19e-05 s⁻¹ | 0.062 nM | 1.0 | 1.17 | 70 °C | 
Z17342: inventive HER2 binding Z variant; D36R, D37Q, S39E, N52S, D53E (AEAKYAKEMRNAYWEIALLPNLTNQQKRAFIRKLYRQPEQSSELLSEAKKLSESQAPK; Engineered HER2 binding Z variant) | 894000 M/s | 0.00157 s⁻¹ | 1.8 nM | 33 | 649000 M/s | 0.0015 s⁻¹ | 2.3 nM | 37 | 1.31 | 62 °C | effect of scaffold substitutions on the affinity (human HER2-Fc; [4]): more negative effect on the affinity; Kd (human HER2-Fc; range of magnitude): ~1 nM
Z17344: inventive PDGF-Rβ binding Z variant; D36R, D37Q, S39E, N52S, D53E (AEAKYAKELIEAAAEIDALPNLTRRQWNAFIKKLVRQPEQSSELLSEAKKLSESQAPK; Engineered PDGFRbeta binding Z variant) |  |  |  |  |  |  |  |  |  | 42 °C | ka (human PDGF-Rβ; (0) prior to stability test): 5.15e+07 M/s; kd (human PDGF-Rβ; (0) prior to stability test): 0.0616 s⁻¹; Kd (human PDGF-Rβ; [2]): 1.2 nM; KDInv/KDOrig (human PDGF-Rβ; (0) prior to stability test): 6.19; ka (human PDGF-Rβ; (2w) after 2 weeks at 37° C.): 5.62e+07 M/s; kd (human PDGF-Rβ; (2w) after 2 weeks at 37° C.): 0.0623 s⁻¹; Kd (human PDGF-Rβ; [3]): 1.1 nM; KDInv/KDOrig (human PDGF-Rβ; (2w) after 2 weeks at 37° C.): 3.88; KD(2w)/KD(0) (human PDGF-Rβ; KD after stability test relative to KD before): 0.93; effect of scaffold substitutions on the affinity (human PDGF-Rβ; [4]): more negative effect on the affinity; Kd (human PDGF-Rβ; range of magnitude): ~1 nM
